Source: patent US20230220005A1, “S100A8-INHIBITING PEPTIDE AND DISEASE THERAPEUTIC AGENT CONTAINING SAME” (TOKYO WOMEN'S MEDICAL UNIVERSITY, priority 2020, published 2023)
Ends that are not written are not given here.

Assays:
TLR4/MD-2 [1] = biological target: T1, TLR4/MD-2 (Homo sapiens, UniProt O00206+Q9Y6Y9); experiment: ELISA: binding of TLR4/MD-2 to peptides immobilized on plate; details: for binding to TLR4/MD-2 of alanine-substituted peptides: alanine scanning, amino terminus acetylated, carboxyl terminus amidated, immobilized on ELISA plate, FIG. 3
Method: Furthermore, for the purpose of narrowing the binding region with the TLR4/MD-2 complex, a peptide of 10 amino acids in the carboxyl terminal amino acid sequence was synthesized. At this time, the sequence can be comprehensively analyzed by overlapping by five amino acids. The synthesized peptides were immobilized on an ELISA plate (Thermo Fisher Scientific Inc.; Maxisorp), and then non-specific binding was blocked with a blocking buffer. Each well was washed with PBS-Tween 20 and then incubated with a high-purity human TLR4/MD-2 recombinant protein, then each well was incubated with an anti-TLR4 antibody (Abcam) and an anti-rabbit IgG-HRP labeled antibody (GE Healthcare), and finally a reaction with TMB as an HRP substrate was terminated with an equivalent of 1 N sulfuric acid. The amount of bound TLR4/MD-2 was quantified by measuring the absorbance at OD 450 nm.
In addition, acetylation was introduced at the amino terminus of these peptides, and amidation modification was introduced at the carboxyl terminus. These 10 peptides were immobilized on an ELISA plate (Thermo Fisher Scientific Inc.; Maxisorp) to verify binding with TLR4/MD-2.

[2] = biological target: T2, binding of S100A8 to TLR4/MD-2 complex (Homo sapiens, UniProt O00206+Q9Y6Y9); experiment: Competition ELISA: binding of S100A8 to TLR4/MD-2 complex; details: for competitive activity in competition assay, divalent and tetravalent peptides: FIG. 8; for competitive inhibitory activity on binding of S100A8 to TLR4/MD-2 complex, candidate peptides: chain length screening candidates, FIG. 7(B)
Method: Pre-purified S100A8 protein was immobilized on an ELISA plate. Non-specific binding was blocked with blocking buffer in the same manner as in Example 1. Peptides #1 to #6 were added simultaneously with TLR4/MD-2, and the mixture was reacted. Each well was washed with PBS-Tween 20, then incubated with an anti-TLR4 antibody (Abcam) and an anti-rabbit IgG-HRP labeled antibody (GE Healthcare) subsequently, and finally a reaction with TMB as an HRP substrate was terminated with an equivalent of 1 N sulfuric acid. Bound TLR4/MD-2 was quantified by measuring the absorbance at OD 450 nm.
(§1) In order to identify an essential region in the Peptide3A5 sequence, a series of partial sequence peptides based on the amino acid sequence of Peptide3A5, which were obtained by deleting the amino acid from the amino terminal side or the carboxyl terminal side, were spot-synthesized as divalent peptides on a cellulose membrane sheet using the method of Patent Literature 1. Several kinds of affinity peptides with high affinity to TLR4/MD-2 were obtained by reacting the sheet with TLR4/MD-2 (FIG. 7A). Candidate peptides were subjected to a competition assay similar to Example 1 (FIG. 2).
A competition assay was performed using divalent ILVIK (SEQ ID NO. 2), divalent Peptide3A5 (SEQ ID NO. 1), and tetravalent ILVIK. The tetravalent ILVIK was also synthesized using the method of Patent Literature 1.

[3] = system: IL-8 mRNA expression in human colorectal cancer SW480 cells; experiment: IL-8 mRNA induction by S100A8 in SW480 cells; assay type: cell-based; details: SW480 cells pretreated with peptide, stimulated with S100A8 recombinant protein, after 5 hours; FIG. 4
Method: Human colorectal cancer SW480 cells express TLR4, and induce IL-8 by S100A8 stimulation. In order to verify inhibitory activity of peptides isolated so far, after pretreating divalent Peptide #3 or divalent Peptide3A5, the cells were stimulated with S100A8 recombinant protein, and the mRNA expression of IL-8 after 5 hours was analyzed. The divalent Peptide #3 and the divalent Peptide3A5 were prepared according to the method of Patent Literature 1 described above.

[4] = system: SW480 cells subcutaneous tumor; experiment: Antitumor activity in SW480 xenograft model; assay type: in vivo; details: mouse, two weeks
Method: (§2) First, two weeks after transplantation of SW480 cells subcutaneously in a mouse, the size of the subcutaneous tumor was measured, and confirmed to be equivalent tumor size. The peptide was administered to the abdominal cavity at the indicated concentrations twice a week, and the size of the tumor was measured over time. After two weeks, the size of the subcutaneous tumor was measured, and the subcutaneous tumor was collected.
The divalent ILVIK was identified as an S100A8-inhibiting peptide candidate by chain length screening, and influence of the divalent ILVIK on mouse subcutaneous tumors was examined in the same manner as in Example 5 (FIG. 6). First, two weeks after transplantation of SW480 cells subcutaneously in a mouse, the size of the subcutaneous tumor is measured, and confirmed to be equivalent tumor size. The peptide was administered to the abdominal cavity at the indicated concentrations twice a week, and the size of the tumor was measured over time. After two weeks, the size of the subcutaneous tumor was measured, and the subcutaneous tumor was collected.
as §2, with “tetravalent ILVIK” for “peptide”, “concentrations (1 mg/kg, 5 mg/kg, 10 mg/kg)” for “concentrations”

[5] = biological target: T2, binding of S100A8 to TLR4/MD-2 complex; experiment: Competition by immunoprecipitation with anti-TLR4 antibody and Western blotting; details: 10 times the molar amount of peptide; S100A8 detected by Western blotting; FIG. 2B
Method: The TLR4/MD-2 complex and S100A8 were mixed in a tube. At this time, 10 times the molar amount of each of Peptides #1 to #6 was added, and immunoprecipitation was performed with an anti-TLR4 antibody. The immunoprecipitate was washed several times with a washing buffer, and the final pellet was electrophoresed by SDS-PAGE. Then, S100A8 and TLR4 were detected by Western blotting using an anti-S100A8 antibody and an anti-TLR4 antibody.

TLR4/MD-2 [6] = biological target: T1, TLR4/MD-2; experiment: Chain length screening: divalent peptides spot-synthesized on cellulose membrane sheet reacted with TLR4/MD-2; assay type: binding; details: FIG. 7(A)
From the text: as §1

[7] = peptide to the abdominal cavity twice a week, FIG. 6, FIG. 9

T1 sequence (O00206 24-631 limits assumed): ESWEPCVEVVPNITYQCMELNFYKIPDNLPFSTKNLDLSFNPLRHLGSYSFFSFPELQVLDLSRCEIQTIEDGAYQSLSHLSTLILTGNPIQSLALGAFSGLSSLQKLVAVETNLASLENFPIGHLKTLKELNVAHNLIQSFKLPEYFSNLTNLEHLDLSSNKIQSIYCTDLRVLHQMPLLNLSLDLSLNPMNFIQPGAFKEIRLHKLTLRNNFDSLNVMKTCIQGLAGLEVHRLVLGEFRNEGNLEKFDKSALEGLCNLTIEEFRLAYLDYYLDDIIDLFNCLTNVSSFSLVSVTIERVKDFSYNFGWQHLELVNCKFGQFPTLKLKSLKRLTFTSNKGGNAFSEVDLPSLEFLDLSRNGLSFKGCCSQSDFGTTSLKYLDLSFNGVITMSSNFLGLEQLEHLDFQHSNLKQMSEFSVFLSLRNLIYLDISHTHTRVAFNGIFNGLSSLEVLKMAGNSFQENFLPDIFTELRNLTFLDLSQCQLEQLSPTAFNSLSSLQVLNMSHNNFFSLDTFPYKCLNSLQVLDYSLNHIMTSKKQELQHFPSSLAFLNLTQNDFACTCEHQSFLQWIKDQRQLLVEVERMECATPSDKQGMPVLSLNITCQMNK
T1 sequence (Q9Y6Y9 19-160): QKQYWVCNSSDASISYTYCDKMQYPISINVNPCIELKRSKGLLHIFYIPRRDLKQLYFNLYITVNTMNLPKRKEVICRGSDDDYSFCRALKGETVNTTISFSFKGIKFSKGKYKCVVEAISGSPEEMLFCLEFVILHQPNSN
T2 sequence (O00206 24-631 limits assumed): as the sequence (O00206 24-631 limits assumed) above
T2 sequence (Q9Y6Y9 19-160): as the sequence (Q9Y6Y9 19-160) above

Substance: FQEFAILVIK [Peptide3A5]
- binding to TLR4/MD-2 of alanine-substituted peptides (TLR4/MD-2 [1]): higher affinity for TLR4/MD-2 than Peptide #3

Substance: divalent Peptide3A5: divalent peptide containing two Peptide3A5 (SEQ ID NO. 1) sequences, prepared according to the method of Patent Literature 1 (chain 1 FQEFAILVIK; chain 2 FQEFAILVIK; also: divalent linkage of two copies (linker not given here))
- competitive inhibitory activity, monovalent versus divalent ([2]; various concentrations added simultaneously with TLR4/MD-2 complex, FIG. 5): showed the competitive inhibitory activity at a lower concentration as compared with the monovalent type
- expression of mRNA of IL-8 induced by S100A8 [3]: remarkably inhibited
- development of subcutaneous tumor (tumor size) [4, 7]: suppressed the development of subcutaneous tumor in mice in a concentration-dependent manner

Substance: Phe-Gln-Glu-Phe-Leu-Ile-Leu-Val-Ile-Lys (FQEFLILVIK) [Peptide #3]
- affinity for TLR4/MD-2 (amount of bound TLR4/MD-2, absorbance at OD 450 nm) (TLR4/MD-2 [1]; overlapping 10 amino acid peptides immobilized on ELISA plate, FIG. 1): high affinity for TLR4/MD-2
- competitive inhibitory activity on the binding between S100A8 and the TLR4/MD-2 complex (ELISA) ([2]; S100A8 immobilized, peptide added simultaneously with TLR4/MD-2, FIG. 2A): found to have competitive inhibitory activity
- competitive inhibitory activity on the binding of S100A8 to the TLR4/MD-2 complex (immunoprecipitation) [5]: had competitive inhibitory activity

Substance: divalent ILVIK: divalent peptide containing two ILVIK (SEQ ID NO. 2) sequences (also: divalent linkage of two copies (linker not given here))
- competitive activity in competition assay, divalent and tetravalent peptides [2]: almost similar competitive activity as the divalent Peptide3A5
- development of subcutaneous tumor (tumor size) [4, 7]: suppressed the development of mouse subcutaneous tumor in a concentration-dependent manner

Substance: Peptide3A7: Peptide #3 (SEQ ID NO: 13) with position 7 from the N-terminal side substituted with alanine; acetylated amino terminus, amidated carboxyl terminus (Ac-FQEFLIAVIK-NH2)
- binding to TLR4/MD-2 of alanine-substituted peptides (TLR4/MD-2 [1]): reduced

Substance: Phe-Gln-Glu-Phe-Ala-Ile-Leu-Val-Ile (FQEFAILVI) [SEQ ID NO: 3]
- competitive inhibitory activity on binding of S100A8 to TLR4/MD-2 complex, candidate peptides [2]: competitive inhibitory activity
- affinity for TLR4/MD-2 of partial sequence peptides (TLR4/MD-2 [6]): high affinity

Substance: Peptide3A8: Peptide #3 (SEQ ID NO: 13) with position 8 from the N-terminal side substituted with alanine; acetylated amino terminus, amidated carboxyl terminus (Ac-FQEFLILAIK-NH2)
- binding to TLR4/MD-2 of alanine-substituted peptides (TLR4/MD-2 [1]): reduced

Substance: Peptide3A10: Peptide #3 (SEQ ID NO: 13) with position 10 from the N-terminal side substituted with alanine; acetylated amino terminus, amidated carboxyl terminus (Ac-FQEFLILVIA-NH2)
- binding to TLR4/MD-2 of alanine-substituted peptides (TLR4/MD-2 [1]): reduced

Substance: Ile-Leu-Val-Ile-Lys (ILVIK) [SEQ ID NO: 2]
- competitive inhibitory activity on binding of S100A8 to TLR4/MD-2 complex, candidate peptides [2]: competitive inhibitory activity
- affinity for TLR4/MD-2 of partial sequence peptides (TLR4/MD-2 [6]): high affinity

Substance: Peptide3A6: Peptide #3 (SEQ ID NO: 13) with position 6 from the N-terminal side substituted with alanine; acetylated amino terminus, amidated carboxyl terminus (Ac-FQEFLALVIK-NH2)
- binding to TLR4/MD-2 of alanine-substituted peptides (TLR4/MD-2 [1]): reduced

Substance: divalent Peptide #3: divalent peptide containing two Peptide #3 sequences, prepared according to the method of Patent Literature 1 (FQEFLILVIK)
- expression of mRNA of IL-8 induced by S100A8 [3]: remarkably inhibited

Substance: Gln-Glu-Phe-Ala-Ile-Leu-Val (QEFAILV) [SEQ ID NO: 4]
- competitive inhibitory activity on binding of S100A8 to TLR4/MD-2 complex, candidate peptides [2]: competitive inhibitory activity
- affinity for TLR4/MD-2 of partial sequence peptides (TLR4/MD-2 [6]): high affinity

Substance: tetravalent ILVIK: tetravalent peptide containing four ILVIK sequences, synthesized using the method of Patent Literature 1
- competitive activity in competition assay, divalent and tetravalent peptides [2]: almost the same competitive activity as the divalent ILVIK
- development of subcutaneous tumor (tumor size) ([4]; 1 mg/kg, 5 mg/kg, 10 mg/kg to the abdominal cavity twice a week, FIG. 10): suppressed the development of mouse subcutaneous tumors in a concentration-dependent manner
